According to paper PMC9583931, “Emerin interacts with histone methyltransferases to regulate repressive chromatin at the nuclear periphery” (Frontiers in Cell and Developmental Biology, 2022):

B1: emerin (endogenous, wildtype myogenic progenitors) (natural protein, UniProt O08579 1-259, looked up)
chain: MDDYAVLSDTELAAVLRQYNIPHGPIVGSTRKLYEKKIFEYETQRRRLLPPNSSSSSFSYQFSDLDSAAVDSDMYDLPKKEDALLYQSKDYNDDYYEESYLTTKTYGEPESVGMSKSFRQPGTSLVDADTFHHQVRDDIFSSLEEEGKDRERLIYGQDSAYQSIAHYRPISNVSRSSLGLSYYPTSSTSSVSSSSSSPSSWLTRRAIRPEKQAPAAALGQDRQVPLWGQLLLFLVFAAFLLFVYYSIQAEEGNPFWMDP
notes: emerin, endogenous protein of H2K wildtype mouse myogenic progenitors; also called wildtype emerin; endogenous emerin; source: endogenous, H2K wildtype mouse myogenic progenitors, in lysate (soluble fraction)
B2: EZH2 (enzyme)
chain: not shown
notes: EZH2, endogenous protein of mouse myogenic progenitors; also called catalytic component of PRC2; source: endogenous, mouse myogenic progenitors, in lysate (soluble fraction)
B3: emerin S54F (EDMD1 mutant) (natural protein, UniProt P50402 1-254, looked up)
chain: MDNYADLSDTELTTLLRRYNIPHGPVVGSTRRLYEKKIFEYETQRRRLSPPSSFAASSYSFSDLNSTRGDADMYDLPKKEDALLYQSKGYNDDYYEESYFTTRTYGEPESAGPSRAVRQSVTSFPDADAFHHQVHDDDLLSSSEEECKDRERPMYGRDSAYQSITHYRPVSASRSSLDLSYYPTSSSTSFMSSSSSSSSWLTRRAIRPENRAPGAGLGQDRQVPLWGQLLLFLVFVIVLFFIYHFMQAEEGNPF
notes: emerin with the EDMD1-causing mutation S54F; also called S54F emerin
B4: emerin Q133H (EDMD1 mutant) (natural protein, UniProt P50402 1-254, looked up)
chain: MDNYADLSDTELTTLLRRYNIPHGPVVGSTRRLYEKKIFEYETQRRRLSPPSSSAASSYSFSDLNSTRGDADMYDLPKKEDALLYQSKGYNDDYYEESYFTTRTYGEPESAGPSRAVRQSVTSFPDADAFHHHVHDDDLLSSSEEECKDRERPMYGRDSAYQSITHYRPVSASRSSLDLSYYPTSSSTSFMSSSSSSSSWLTRRAIRPENRAPGAGLGQDRQVPLWGQLLLFLVFVIVLFFIYHFMQAEEGNPF
notes: emerin with the EDMD1-causing mutation Q133H; also called Q133H emerin
B5: euchromatic histone lysine methyltransferase 2 (G9a) (enzyme, UniProt Q9Z148 1-1263, looked up)
chain: MRGLPRGRGLMRARGRGRAAPTGGRGRGRGGAHRGRGRPRSLLSLPRAQASWAPQLPAGLTGPPVPCLPSQGEAPAEMGALLLEKEPRGAAERVHSSLGDTPQSEETLPKANPDSLEPAGPSSPASVTVTVGDEGADTPVGAASLIGDEPESLEGDGGRIVLGHATKSFPSSPSKGGACPSRAKMSMTGAGKSPPSVQSLAMRLLSMPGAQGAATAGPEPSPATTAAQEGQPKVHRARKTMSKPSNGQPPIPEKRPPEVQHFRMSDDMHLGKVTSDVAKRRKLNSGSLSEDLGSAGGSGDIILEKGEPRPLEEWETVVGDDFSLYYDAYSVDERVDSDSKSEVEALAEQLSEEEEEEEEEEEEEEEEEEEEEEEEEDEESGNQSDRSGSSGRRKAKKKWRKDSPWVKPSRKRRKREPPRAKEPRGVNGVGSSGPSEYMEVPLGSLELPSEGTLSPNHAGVSNDTSSLETERGFEELPLCSCRMEAPKIDRISERAGHKCMATESVDGELLGCNAAILKRETMRPSSRVALMVLCEAHRARMVKHHCCPGCGYFCTAGTFLECHPDFRVAHRFHKACVSQLNGMVFCPHCGEDASEAQEVTIPRGDGGTPPIGTAAPALPPLAHDAPGRADTSQPSARMRGHGEPRRPPCDPLADTIDSSGPSLTLPNGGCLSAVGLPPGPGREALEKALVIQESERRKKLRFHPRQLYLSVKQGELQKVILMLLDNLDPNFQSDQQSKRTPLHAAAQKGSVEICHVLLQAGANINAVDKQQRTPLMEAVVNNHLEVARYMVQLGGCVYSKEEDGSTCLHHAAKIGNLEMVSLLLSTGQVDVNAQDSGGWTPIIWAAEHKHIDVIRMLLTRGADVTLTDNEENICLHWASFTGSAAIAEVLLNAQCDLHAVNYHGDTPLHIAARESYHDCVLLFLSRGANPELRNKEGDTAWDLTPERSDVWFALQLNRKLRLGVGNRAVRTEKIICRDVARGYENVPIPCVNGVDGEPCPEDYKYISENCETSTMNIDRNITHLQHCTCVDDCSSSNCLCGQLSIRCWYDKDGRLLQEFNKIEPPLIFECNQACSCWRSCKNRVVQSGIKVRLQLYRTAKMGWGVRALQTIPQGTFICEYVGELISDAEADVREDDSYLFDLDNKDGEVYCIDARYYGNISRFINHLCDPNIIPVRVFMLHQDLRFPRIAFFSSRDIRTGEELGFDYGDRFWDIKSKYFTCQCGSEKCKHSAEAIALEQSRLARLDPHPELLPDLSSLPPINT
notes: G9a (EHMT2), endogenous protein of mouse myogenic progenitors; also called EHMT2; source: endogenous, mouse myogenic progenitors, in lysate (soluble fraction)

Columns and labels:
Settings in all cases: partners not purified
[1] = target: B2; experiment: co-IP; anti-EZH2 antibody on protein G magnetic beads, incubated overnight with the soluble fraction of sonicated whole-cell lysates (modified NEHN buffer, 500 mM NaCl, 1% NP-40) of proliferating myogenic progenitors; blot for emerin; densitometry, ratio of bound to input
[2] = target: B5; experiment: co-IP; anti-G9a antibody on protein G magnetic beads, incubated overnight with the soluble fraction of sonicated whole-cell lysates (modified NEHN buffer, 500 mM NaCl, 1% NP-40) of proliferating myogenic progenitors; blot for emerin; densitometry, ratio of bound to input
[3] = target: B4; experiment: co-IP; anti-emerin antibody on protein G magnetic beads, incubated overnight with the soluble fraction of sonicated whole-cell lysates (modified NEHN buffer, 500 mM NaCl, 1% NP-40) of proliferating myogenic progenitors; blot for G9a or EZH2; densitometry, ratio of bound to input
[4] = target: B1; experiment: as above
[5] = target: B3; experiment: as above

Sequence of EZH2 (Q61188 whole entry): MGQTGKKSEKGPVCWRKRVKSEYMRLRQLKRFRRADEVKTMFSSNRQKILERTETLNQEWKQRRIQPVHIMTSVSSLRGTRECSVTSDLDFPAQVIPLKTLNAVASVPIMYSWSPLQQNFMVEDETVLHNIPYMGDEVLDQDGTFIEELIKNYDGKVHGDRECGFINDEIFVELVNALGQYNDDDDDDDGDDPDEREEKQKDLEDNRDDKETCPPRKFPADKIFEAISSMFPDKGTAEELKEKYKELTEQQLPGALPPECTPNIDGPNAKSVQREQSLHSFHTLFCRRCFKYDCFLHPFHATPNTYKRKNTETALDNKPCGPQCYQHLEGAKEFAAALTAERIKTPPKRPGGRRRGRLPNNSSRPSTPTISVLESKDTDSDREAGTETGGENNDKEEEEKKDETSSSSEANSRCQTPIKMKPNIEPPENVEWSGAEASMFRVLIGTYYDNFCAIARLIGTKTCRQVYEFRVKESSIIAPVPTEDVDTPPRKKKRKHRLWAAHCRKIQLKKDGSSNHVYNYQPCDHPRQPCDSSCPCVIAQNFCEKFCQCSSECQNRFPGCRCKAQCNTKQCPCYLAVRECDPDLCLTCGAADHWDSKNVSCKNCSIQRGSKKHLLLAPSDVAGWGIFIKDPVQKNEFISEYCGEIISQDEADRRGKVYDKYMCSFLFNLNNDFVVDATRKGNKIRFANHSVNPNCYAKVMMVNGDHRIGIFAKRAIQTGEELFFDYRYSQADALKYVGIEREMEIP

Binder	percent of input bound [1] [%]	percent of input bound [2]	percent of input bound [3] [%]	percent of input bound [4] [%]	percent of input bound [5] [%]
B1	0.7	0.76 % of input			
B2			89.4	2.4	57.9
B3	71.8	80.9 % of input			
B4	77.8	45.1 % of input			
B5			9.6	0.2	13.8
